Test system: Arabidopsis thaliana T1 plants
Assay: Topramezone tolerance of transgenic Arabidopsis thaliana T1 plants (pesticide damage grade by bleached leaf area, score, resistance evaluation)
Assay type: in vivo
Design: score: scale not given here
Conditions: for Classification and statistics of pesticide damage grade Grade 0 / Classification and statistics of pesticide damage grade Grade 1 / Classification and statistics of pesticide damage grade Grade 2 / Classification and statistics of pesticide damage grade Grade 3 / Classification and statistics of the grade of pesticide damage Grade 0 / Classification and statistics of the grade of pesticide damage Grade 1 / Classification and statistics of the grade of pesticide damage Grade 2 / Classification and statistics of the grade of pesticide damage Grade 3: number of plants (of 16) in this grade; for Classification and statistics of pesticide damage grade Grade 0 / Classification and statistics of pesticide damage grade Grade 1 / Classification and statistics of pesticide damage grade Grade 2 / Classification and statistics of pesticide damage grade Grade 3 / Scores / Resistance evaluation / Classification and statistics of the grade of pesticide damage Grade 0 / Classification and statistics of the grade of pesticide damage Grade 1 / Classification and statistics of the grade of pesticide damage Grade 2 / Classification and statistics of the grade of pesticide damage Grade 3: 7 DAT
From the text: The Arabidopsisthaliana T1 plants into which the AsHPPDm-F372A-02 nucleotide sequence was introduced, Arabidopsis thaliana T1 plants into which the AsHPPD-02 nucleotide sequence was introduced and wild-type Arabidopsisthaliana plants (18 days after sowing) were sprayed with topramezone at four different concentrations, i.e., 25 g ai/ha (one-fold field concentration, 1×), 50 g ai/ha (two-fold field concentration, 2×), 100 g ai/ha (four-fold field concentration, 4×) and 0 g ai/ha (water, 0×) to determine the tolerance of Arabidopsisthaliana to the herbicide. The degree of damage caused by the herbicide was measured for each plant according to the proportion of bleached leaf area (the proportion of bleached leaf area=bleached leaf area/total leaf area×100%) 7 days after spraying (7 DAT): the case where there is basically no bleached phenotype is defined as grade 0, the case where the proportion of bleached leaf area is less than 50% is defined as grade 1,the case where the proportion of bleached leaf area is more than 50% is defined as grade 2, and the case where the proportion of bleached leaf area is 100% grade is defined as grade 3.
According to the method as described above in point 6 of Example 1, the aforementioned Arabidopsisthaliana T1 plants and wild-type Arabidopsisthaliana plants (18 days after sowing) were sprayed with topramezone at three different concentrations respectively, i.e., 25 g ai/ha (one-fold field concentration, 1×), 100 g ai/ha (four-fold field concentration, 4×) and 0 g ai/ha(water, 0×) to detect the tolerance of Arabidopsisthaliana to the herbicide.
According to the method as described above in point 6 of Example 1, the aforementioned Arabidopsisthaliana T1 plants and wild-type Arabidopsisthaliana plants (18 days after sowing) were sprayed with topramezone at three different concentrations respectively, i.e., 25 g ai/ha (one-fold field concentration, 1x), 100 g ai/ha (four-fold field concentration, 4x) and 0 g ai/ha (water, 0x) to detect the tolerance of Arabidopsisthaliana to the herbicide.
According to the method as described above in point 6 of Example 1, the above-mentioned Arabidopsisthaliana T1 plants, Arabidopsisthaliana T1 plants into which the AsHPPD-02 nucleotide sequence was introduced, Arabidopsisthaliana T1 plants into which the PfHPPD-02 nucleotide sequence was introduced, and wild-type Arabidopsisthaliana plants (18 days after sowing) were sprayed with topramezone at four different concentrations respectively, that is, 25 g ai/ha (one-fold field concentration, 1x), 50 g ai/ha (two-fold field concentration, 2x), 100 g ai/ha (four-fold field concentration, 4x) and 0 g ai/ha (water, Ox) to detect the herbicide tolerance of Arabidopsisthaliana.
According to the method as described in point 6 of Example 1, the above-mentioned Arabidopsisthaliana T1 plants and wild-type Arabidopsisthaliana plants (18 days after sowing) were sprayed with topramezone at two different concentrations respectively, that is, 25 g ai/ha (one-fold field concentration, 1x) and 100 g ai/ha (four-fold field concentration, 4x) to detect the herbicide tolerance of Arabidopsisthaliana,. […]

[1] = HPPDs from different species, topramezone 25 g ai/ha (1x)
[2] = HPPDs from different species, topramezone 100 g ai/ha (4x)
[3] = topramezone 25 g ai/ha, mutation combination, Table 8
[4] = topramezone 100 g ai/ha, mutation combination, Table 8
[5] = non-372 position mutants, number of plants (of 20) in this grade, topramezone 25 g ai/ha (1x)
[6] = non-372 position mutants, number of plants (of 20) in this grade, topramezone 100 g ai/ha (4x)
[7] = topramezone 25 g ai/ha (1x), HPPD from Avena sativa source
[8] = topramezone 25 g ai/ha (1x), number of plants, HPPD from Avena sativa source
[9] = topramezone 50 g ai/ha (2x), HPPD from Avena sativa source
[10] = topramezone 50 g ai/ha (2x), number of plants, HPPD from Avena sativa source
[11] = topramezone 100 g ai/ha (4x), HPPD from Avena sativa source
[12] = topramezone 100 g ai/ha (4x), number of plants, HPPD from Avena sativa source

B1: PfHPPD-02: native Pseudomonas fluorescens HPPD, SEQ ID NO: 27 (protein, listed as Pseudomonas fluorescens)
chain: MADLYENPMGLMGFEFIEFASPTPGTLEPIFEIMGFTKVATHRSKNVHLYRQGEINLILNNEPNSIASYFAAEHGPSVCGMAFRVKDSQKAYNRALELGAQPIHIDTGPMELNLPAIKGIGGAPLYLIDRFGEGSSIYDIDFVYLEGVERNPVGAGLKVIDHLTHNVYRGRMVYWANFYEKLFNFREARYFDIKGEYTGLTSKAMSAPDGMIRIPLNEESSKGAGQIEEFLMQFNGEGIQHVAFLTDDLVKTWDALKKIGMRFMTAPPDTYYEMLEGRLPDHGEPVDQLQARGILLDGSSVEGDKRLLLQIFSETLMGPVFFEFIQRKGDDGFGEGNFKALFESIERDQVRRGVLTAD
modifications: PfHPPD Amino Acid Sequence
[1]
  Classification and statistics of pesticide damage grade Grade 0: 0
  Classification and statistics of pesticide damage grade Grade 1: 0
  Classification and statistics of pesticide damage grade Grade 2: 0
  Classification and statistics of pesticide damage grade Grade 3: 16
  Resistance evaluation: non-resistant (non-resistant plants (scores 68-100))
[2]
  Classification and statistics of pesticide damage grade Grade 0: 0
  Classification and statistics of pesticide damage grade Grade 1: 0
  Classification and statistics of pesticide damage grade Grade 2: 0
  Classification and statistics of pesticide damage grade Grade 3: 16
  Resistance evaluation: non-resistant (non-resistant plants (scores 68-100))
HPPDs from different species, score for pesticide damage 0-100, topramezone 25 g ai/ha (1x)
  Scores: 100
HPPDs from different species, score for pesticide damage 0-100, topramezone 100 g ai/ha (4x)
  Scores: 100
Saturation mutation of HPPD from Pseudomonas fluorescens source (label F372X = PfHPPDm-F372X), topramezone 25, 50, 100 g ai/ha
  tolerance to topramezone, in words: no tolerance
[3]
  Grade 0 (number of plants): 0
  Grade 1 (number of plants): 0
  Grade 2 (number of plants): 0
  Grade 3 (number of plants): 20
  Resistance Grade: Non-resistant
  score: 100
[4]
  Grade 0 (number of plants): 0
  Grade 1 (number of plants): 0
  Grade 2 (number of plants): 0
  Grade 3 (number of plants): 20
  Resistance Grade: Non-resistant
  score: 100

B2: AsHPPD-02: Avena sativa native HPPD, SEQ ID NO: 1; gene SEQ ID NO: 3 (protein, listed as Avena sativa)
chain: MPPTPATATGAAAAAVTPEHAARSFPRVVRVNPRSDRFPVLSFHHVELWCADAASAAGRFSFALGAPLAARSDLSTGNSAHASLLLRSGALAFLFTAPYAPPPQEAATAAATASIPSFSADAARTFAAAHGLAVRSVGVRVADAAEAFRVSVAGGARPAFAPADLGHGFGLAEVELYGDVVLRFVSYPDETDLPFLPGFERVSSPGAVDYGLTRFDHVVGNVPEMAPVIDYMKGFLGFHEFAEFTAEDVGTTESGLNSVVLANNSEAVLLPLNEPVHGTKRRSQIQTYLEYHGGPGVQHIALASNDVLRTLREMRARTPMGGFEFMAPPQAKYYEGVRRIAGDVLSEEQIKECQELGVLVDRDDQGVLLQIFTKPVGDRPTFFLEMIQRIGCMEKDEVGQEYQKGGCGGFGKGNFSELFKSIEDYEKSLEVKQSVVAQKS
modifications: AsHPPD Amido Acid Sequence
Arabidopsis thaliana T1 plants sprayed with topramezone
  tolerance to topramezone, in words: no or relatively low tolerance
[5]
  Grade 0: 0
  Grade 1: 5
  Grade 2: 13
  Grade 3: 2
[6]
  Grade 0: 0
  Grade 1: 0
  Grade 2: 4
  Grade 3: 16
non-372 position mutants, score for pesticide damage 0-100, topramezone 25 g ai/ha (1x)
  score: 62
non-372 position mutants, score for pesticide damage 0-100, topramezone 100 g ai/ha (4x)
  score: 93
non-372 position mutants, topramezone 25 g ai/ha (1x)
  Resistance Grade: poorly resistant (poorly resistant plants (scores 34-67))
non-372 position mutants, topramezone 100 g ai/ha (4x)
  Resistance Grade: non-resistant (non-resistant plants (scores 68-100))
Topramezone 25 g ai/ha (1x)
  Classification and statistics of the grade of pesticide damage Grade 0: 0
  Classification and statistics of the grade of pesticide damage Grade 1: 4
  Classification and statistics of the grade of pesticide damage Grade 2: 12
  Classification and statistics of the grade of pesticide damage Grade 3: 0
  Resistance evaluation: poorly resistant (poorly resistant plants (scores 34-67))
Topramezone 50 g ai/ha (2x)
  Classification and statistics of the grade of pesticide damage Grade 0: 0
  Classification and statistics of the grade of pesticide damage Grade 1: 0
  Classification and statistics of the grade of pesticide damage Grade 2: 6
  Classification and statistics of the grade of pesticide damage Grade 3: 10
  Resistance evaluation: non-resistant (non-resistant plants (scores 68-100))
Topramezone 100 g ai/ha (4x)
  Classification and statistics of the grade of pesticide damage Grade 0: 0
  Classification and statistics of the grade of pesticide damage Grade 1: 0
  Classification and statistics of the grade of pesticide damage Grade 2: 4
  Classification and statistics of the grade of pesticide damage Grade 3: 12
  Resistance evaluation: non-resistant (non-resistant plants (scores 68-100))
Saturation mutation of HPPD from Avena sativa source (label F372X = AsHPPDm-F372X), topramezone 25, 50, 100 g ai/ha
  tolerance to topramezone, in words: no or low tolerance
Score for pesticide damage 0-100, topramezone 25 g ai/ha (1x)
  Scores: 58
Score for pesticide damage 0-100, topramezone 50 g ai/ha (2x)
  Scores: 88
Score for pesticide damage 0-100, topramezone 100 g ai/ha (4x)
  Scores: 92
[7]
  Resistance Grade: Poorly resistant
  score: 57
[8]
  Grade 0: 2
  Grade 1: 2
  Grade 2: 16
  Grade 3: 0
[3]
  Grade 0 (number of plants): 2
  Grade 1 (number of plants): 2
  Grade 2 (number of plants): 16
  Grade 3 (number of plants): 0
  Resistance Grade: Poorly resistant
  score: 57
[9]
  Resistance Grade: Non-resistant
  score: 87
[10]
  Grade 0: 0
  Grade 1: 2
  Grade 2: 4
  Grade 3: 14
[11]
  Resistance Grade: Non-resistant
  score: 93
[12]
  Grade 0: 0
  Grade 1: 0
  Grade 2: 4
  Grade 3: 16
[4]
  Grade 0 (number of plants): 0
  Grade 1 (number of plants): 0
  Grade 2 (number of plants): 4
  Grade 3 (number of plants): 16
  Resistance Grade: Non-resistant
  score: 93
